Results on six molecules are retold here after patent publication US12679878B2, “CRF2 receptor agonists and their use in therapy” (SANOFI, priority 2020, dated 2026).

Starred links: 1 amine or outer side, 2 acyl side, 3 side chain; linkers in the order of their positions; H or OH if unused. Non-standard residues stand in square brackets, D forms with d. Groups on a side chain read outwards from the residue. No end group written: not given here. *: point of attachment. C16 diacid = O=C(O)CCCCCCCCCCCCCCC(=O)*; γGlu = O=C(O)[C@H](CCC(=O)[*:2])N[*:1]; Aib = CC(C)(N)C(=O)O

Assay in all cases: cell-based or functional assay
Assay [1] deals with human corticotropin-releasing factor 2α receptor (CRF2α receptor) (human), Q13324.
human corticotropin-releasing factor 2α receptor (CRF2α receptor) (human), Q13324, sequence (Q13324 20-411): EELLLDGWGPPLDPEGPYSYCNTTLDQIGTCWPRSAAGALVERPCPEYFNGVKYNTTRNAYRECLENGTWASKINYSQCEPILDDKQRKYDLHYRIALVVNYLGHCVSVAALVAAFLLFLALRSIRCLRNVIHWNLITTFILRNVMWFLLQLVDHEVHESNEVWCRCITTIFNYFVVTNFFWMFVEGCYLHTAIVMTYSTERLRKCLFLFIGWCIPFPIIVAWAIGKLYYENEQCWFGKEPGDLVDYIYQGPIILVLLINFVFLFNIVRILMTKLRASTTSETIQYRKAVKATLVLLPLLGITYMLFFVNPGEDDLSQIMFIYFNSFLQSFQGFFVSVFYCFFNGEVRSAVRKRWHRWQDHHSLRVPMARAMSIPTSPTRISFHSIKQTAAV
The target of assay [2] is human corticotropin-releasing factor 2α (CRF2α receptor) (human), Q13324.
human corticotropin-releasing factor 2α (CRF2α receptor) (human), Q13324, sequence (Q13324 20-411): as above
The target in assay [3] is T1, CRF1R receptor (anti-target) (UniProt P34998 24-415, limits assumed).
T1 sequence (looked up): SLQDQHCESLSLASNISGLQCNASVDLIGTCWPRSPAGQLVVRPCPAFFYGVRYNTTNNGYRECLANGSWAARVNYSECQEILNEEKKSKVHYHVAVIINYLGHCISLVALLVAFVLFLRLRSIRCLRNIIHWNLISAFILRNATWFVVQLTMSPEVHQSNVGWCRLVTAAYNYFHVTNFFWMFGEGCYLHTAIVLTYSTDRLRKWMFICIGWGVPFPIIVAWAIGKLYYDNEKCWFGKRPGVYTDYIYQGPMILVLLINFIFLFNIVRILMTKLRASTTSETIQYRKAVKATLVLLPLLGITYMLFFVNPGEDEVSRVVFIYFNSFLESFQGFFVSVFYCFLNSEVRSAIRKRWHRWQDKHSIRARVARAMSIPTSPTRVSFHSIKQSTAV

B1: peptide of SEQ ID NO: 193 (peptide)
peptide: IVLSLD[dV]PIGLK([γGlu-C16 diacid])QILLKQERQKK[Aib]REQAETNKRILERV-NH2
modifications: N-terminus assumed
SMILES: CC[C@H](C)[C@H](N)C(=O)N[C@H](C(=O)N[C@@H](CC(C)C)C(=O)N[C@@H](CO)C(=O)N[C@@H](CC(C)C)C(=O)N[C@@H](CC(=O)O)C(=O)N[C@@H](C(=O)N1CCC[C@H]1C(=O)N[C@H](C(=O)NCC(=O)N[C@@H](CC(C)C)C(=O)N[C@@H](CCCCNC(=O)CC[C@H](NC(=O)CCCCCCCCCCCCCCC(=O)O)C(=O)O)C(=O)N[C@@H](CCC(N)=O)C(=O)N[C@H](C(=O)N[C@@H](CC(C)C)C(=O)N[C@@H](CC(C)C)C(=O)N[C@@H](CCCCN)C(=O)N[C@@H](CCC(N)=O)C(=O)N[C@@H](CCC(=O)O)C(=O)N[C@@H](CCCNC(=N)N)C(=O)N[C@@H](CCC(N)=O)C(=O)N[C@@H](CCCCN)C(=O)N[C@@H](CCCCN)C(=O)NC(C)(C)C(=O)N[C@@H](CCCNC(=N)N)C(=O)N[C@@H](CCC(=O)O)C(=O)N[C@@H](CCC(N)=O)C(=O)N[C@@H](C)C(=O)N[C@@H](CCC(=O)O)C(=O)N[C@H](C(=O)N[C@@H](CC(N)=O)C(=O)N[C@@H](CCCCN)C(=O)N[C@@H](CCCNC(=N)N)C(=O)N[C@H](C(=O)N[C@@H](CC(C)C)C(=O)N[C@@H](CCC(=O)O)C(=O)N[C@@H](CCCNC(=N)N)C(=O)N[C@H](C(N)=O)C(C)C)[C@@H](C)CC)[C@@H](C)O)[C@@H](C)CC)[C@@H](C)CC)C(C)C)C(C)C
Turning to B1, the CRF2 EC50 (cAMP, HTRF) in assay [1] turned out to be 0.82 nM. For the same molecule, in assay [2], the EC50 [nM], 0% HSA (cAMP, HTRF) was determined as 0.82 nM.

B2: peptide of SEQ ID NO: 188 (peptide)
peptide: IVLSLD[dV]PIKLK([γGlu-C16 diacid])QILLKQERQK[Aib]QRQQAEKNKQILAQV-NH2
modifications: N-terminus assumed
SMILES: CC[C@H](C)[C@H](N)C(=O)N[C@H](C(=O)N[C@@H](CC(C)C)C(=O)N[C@@H](CO)C(=O)N[C@@H](CC(C)C)C(=O)N[C@@H](CC(=O)O)C(=O)N[C@@H](C(=O)N1CCC[C@H]1C(=O)N[C@H](C(=O)N[C@@H](CCCCN)C(=O)N[C@@H](CC(C)C)C(=O)N[C@@H](CCCCNC(=O)CC[C@H](NC(=O)CCCCCCCCCCCCCCC(=O)O)C(=O)O)C(=O)N[C@@H](CCC(N)=O)C(=O)N[C@H](C(=O)N[C@@H](CC(C)C)C(=O)N[C@@H](CC(C)C)C(=O)N[C@@H](CCCCN)C(=O)N[C@@H](CCC(N)=O)C(=O)N[C@@H](CCC(=O)O)C(=O)N[C@@H](CCCNC(=N)N)C(=O)N[C@@H](CCC(N)=O)C(=O)N[C@@H](CCCCN)C(=O)NC(C)(C)C(=O)N[C@@H](CCC(N)=O)C(=O)N[C@@H](CCCNC(=N)N)C(=O)N[C@@H](CCC(N)=O)C(=O)N[C@@H](CCC(N)=O)C(=O)N[C@@H](C)C(=O)N[C@@H](CCC(=O)O)C(=O)N[C@@H](CCCCN)C(=O)N[C@@H](CC(N)=O)C(=O)N[C@@H](CCCCN)C(=O)N[C@@H](CCC(N)=O)C(=O)N[C@H](C(=O)N[C@@H](CC(C)C)C(=O)N[C@@H](C)C(=O)N[C@@H](CCC(N)=O)C(=O)N[C@H](C(N)=O)C(C)C)[C@@H](C)CC)[C@@H](C)CC)[C@@H](C)CC)C(C)C)C(C)C
For B2, in assay [3], the “CRF1/CRF2 ratio (of EC50)” value was determined as 134 and the “CRF1 EC50 (cAMP, HTRF)” value was 69.1 nM. Also, the CRF2 EC50 (cAMP, HTRF) in assay [1] is 0.46 nM. This molecule registered an EC50 [nM], 0% HSA (cAMP, HTRF) in assay [2] of 0.46 nM.

B3: peptide of SEQ ID NO: 196 (peptide)
peptide: IVLSLD[dV]PIGLK([γGlu-C16 diacid])QILLKQERQKK[Aib]REQAEKNKRILERV-NH2
modifications: N-terminus assumed
SMILES: CC[C@H](C)[C@H](N)C(=O)N[C@H](C(=O)N[C@@H](CC(C)C)C(=O)N[C@@H](CO)C(=O)N[C@@H](CC(C)C)C(=O)N[C@@H](CC(=O)O)C(=O)N[C@@H](C(=O)N1CCC[C@H]1C(=O)N[C@H](C(=O)NCC(=O)N[C@@H](CC(C)C)C(=O)N[C@@H](CCCCNC(=O)CC[C@H](NC(=O)CCCCCCCCCCCCCCC(=O)O)C(=O)O)C(=O)N[C@@H](CCC(N)=O)C(=O)N[C@H](C(=O)N[C@@H](CC(C)C)C(=O)N[C@@H](CC(C)C)C(=O)N[C@@H](CCCCN)C(=O)N[C@@H](CCC(N)=O)C(=O)N[C@@H](CCC(=O)O)C(=O)N[C@@H](CCCNC(=N)N)C(=O)N[C@@H](CCC(N)=O)C(=O)N[C@@H](CCCCN)C(=O)N[C@@H](CCCCN)C(=O)NC(C)(C)C(=O)N[C@@H](CCCNC(=N)N)C(=O)N[C@@H](CCC(=O)O)C(=O)N[C@@H](CCC(N)=O)C(=O)N[C@@H](C)C(=O)N[C@@H](CCC(=O)O)C(=O)N[C@@H](CCCCN)C(=O)N[C@@H](CC(N)=O)C(=O)N[C@@H](CCCCN)C(=O)N[C@@H](CCCNC(=N)N)C(=O)N[C@H](C(=O)N[C@@H](CC(C)C)C(=O)N[C@@H](CCC(=O)O)C(=O)N[C@@H](CCCNC(=N)N)C(=O)N[C@H](C(N)=O)C(C)C)[C@@H](C)CC)[C@@H](C)CC)[C@@H](C)CC)C(C)C)C(C)C
For B3, the CRF2 EC50 (cAMP, HTRF) in assay [1] came out at 1.08 nM. In assay [2], this molecule yielded an EC50 [nM], 0% HSA (cAMP, HTRF) of 1.08 nM.

B4: peptide of SEQ ID NO: 197 (peptide)
peptide: IVLSLD[dV]PIKLK([γGlu-C16 diacid])QILLKQARQK[Aib]QRAQAEKNKRILERV-NH2
modifications: N-terminus assumed
SMILES: CC[C@H](C)[C@H](N)C(=O)N[C@H](C(=O)N[C@@H](CC(C)C)C(=O)N[C@@H](CO)C(=O)N[C@@H](CC(C)C)C(=O)N[C@@H](CC(=O)O)C(=O)N[C@@H](C(=O)N1CCC[C@H]1C(=O)N[C@H](C(=O)N[C@@H](CCCCN)C(=O)N[C@@H](CC(C)C)C(=O)N[C@@H](CCCCNC(=O)CC[C@H](NC(=O)CCCCCCCCCCCCCCC(=O)O)C(=O)O)C(=O)N[C@@H](CCC(N)=O)C(=O)N[C@H](C(=O)N[C@@H](CC(C)C)C(=O)N[C@@H](CC(C)C)C(=O)N[C@@H](CCCCN)C(=O)N[C@@H](CCC(N)=O)C(=O)N[C@@H](C)C(=O)N[C@@H](CCCNC(=N)N)C(=O)N[C@@H](CCC(N)=O)C(=O)N[C@@H](CCCCN)C(=O)NC(C)(C)C(=O)N[C@@H](CCC(N)=O)C(=O)N[C@@H](CCCNC(=N)N)C(=O)N[C@@H](C)C(=O)N[C@@H](CCC(N)=O)C(=O)N[C@@H](C)C(=O)N[C@@H](CCC(=O)O)C(=O)N[C@@H](CCCCN)C(=O)N[C@@H](CC(N)=O)C(=O)N[C@@H](CCCCN)C(=O)N[C@@H](CCCNC(=N)N)C(=O)N[C@H](C(=O)N[C@@H](CC(C)C)C(=O)N[C@@H](CCC(=O)O)C(=O)N[C@@H](CCCNC(=N)N)C(=O)N[C@H](C(N)=O)C(C)C)[C@@H](C)CC)[C@@H](C)CC)[C@@H](C)CC)C(C)C)C(C)C
With B4, the CRF2 EC50 (cAMP, HTRF) in assay [1] was 2.27 nM. In assay [2], this molecule came in with an EC50 [nM], 0% HSA (cAMP, HTRF) of 2.27 nM.

B5: peptide of SEQ ID NO: 192 (peptide)
peptide: IVLSLD[dV]PIKLK([γGlu-C16 diacid])QILLKQERQKKQRQQAEKNKQILAQV-NH2
modifications: N-terminus assumed
SMILES: CC[C@H](C)[C@H](N)C(=O)N[C@H](C(=O)N[C@@H](CC(C)C)C(=O)N[C@@H](CO)C(=O)N[C@@H](CC(C)C)C(=O)N[C@@H](CC(=O)O)C(=O)N[C@@H](C(=O)N1CCC[C@H]1C(=O)N[C@H](C(=O)N[C@@H](CCCCN)C(=O)N[C@@H](CC(C)C)C(=O)N[C@@H](CCCCNC(=O)CC[C@H](NC(=O)CCCCCCCCCCCCCCC(=O)O)C(=O)O)C(=O)N[C@@H](CCC(N)=O)C(=O)N[C@H](C(=O)N[C@@H](CC(C)C)C(=O)N[C@@H](CC(C)C)C(=O)N[C@@H](CCCCN)C(=O)N[C@@H](CCC(N)=O)C(=O)N[C@@H](CCC(=O)O)C(=O)N[C@@H](CCCNC(=N)N)C(=O)N[C@@H](CCC(N)=O)C(=O)N[C@@H](CCCCN)C(=O)N[C@@H](CCCCN)C(=O)N[C@@H](CCC(N)=O)C(=O)N[C@@H](CCCNC(=N)N)C(=O)N[C@@H](CCC(N)=O)C(=O)N[C@@H](CCC(N)=O)C(=O)N[C@@H](C)C(=O)N[C@@H](CCC(=O)O)C(=O)N[C@@H](CCCCN)C(=O)N[C@@H](CC(N)=O)C(=O)N[C@@H](CCCCN)C(=O)N[C@@H](CCC(N)=O)C(=O)N[C@H](C(=O)N[C@@H](CC(C)C)C(=O)N[C@@H](C)C(=O)N[C@@H](CCC(N)=O)C(=O)N[C@H](C(N)=O)C(C)C)[C@@H](C)CC)[C@@H](C)CC)[C@@H](C)CC)C(C)C)C(C)C
On to B5, for which, in assay [3], the “CRF1/CRF2 ratio (of EC50)” value is 68 and the “CRF1 EC50 (cAMP, HTRF)” value came to 56.6 nM. The molecule further had a CRF2 EC50 (cAMP, HTRF) in assay [1] of 0.83 nM. For the same molecule, in assay [2], the EC50 [nM], 0% HSA (cAMP, HTRF) was determined as 0.83 nM.

B6: peptide of SEQ ID NO: 195 (peptide)
peptide: IVLSLD[dV]PIGLK([γGlu-C16 diacid])QILLKQERQKK[Aib]RQQAETNKRILERV-NH2
modifications: N-terminus assumed
SMILES: CC[C@H](C)[C@H](N)C(=O)N[C@H](C(=O)N[C@@H](CC(C)C)C(=O)N[C@@H](CO)C(=O)N[C@@H](CC(C)C)C(=O)N[C@@H](CC(=O)O)C(=O)N[C@@H](C(=O)N1CCC[C@H]1C(=O)N[C@H](C(=O)NCC(=O)N[C@@H](CC(C)C)C(=O)N[C@@H](CCCCNC(=O)CC[C@H](NC(=O)CCCCCCCCCCCCCCC(=O)O)C(=O)O)C(=O)N[C@@H](CCC(N)=O)C(=O)N[C@H](C(=O)N[C@@H](CC(C)C)C(=O)N[C@@H](CC(C)C)C(=O)N[C@@H](CCCCN)C(=O)N[C@@H](CCC(N)=O)C(=O)N[C@@H](CCC(=O)O)C(=O)N[C@@H](CCCNC(=N)N)C(=O)N[C@@H](CCC(N)=O)C(=O)N[C@@H](CCCCN)C(=O)N[C@@H](CCCCN)C(=O)NC(C)(C)C(=O)N[C@@H](CCCNC(=N)N)C(=O)N[C@@H](CCC(N)=O)C(=O)N[C@@H](CCC(N)=O)C(=O)N[C@@H](C)C(=O)N[C@@H](CCC(=O)O)C(=O)N[C@H](C(=O)N[C@@H](CC(N)=O)C(=O)N[C@@H](CCCCN)C(=O)N[C@@H](CCCNC(=N)N)C(=O)N[C@H](C(=O)N[C@@H](CC(C)C)C(=O)N[C@@H](CCC(=O)O)C(=O)N[C@@H](CCCNC(=N)N)C(=O)N[C@H](C(N)=O)C(C)C)[C@@H](C)CC)[C@@H](C)O)[C@@H](C)CC)[C@@H](C)CC)C(C)C)C(C)C
On to B6, for which the CRF2 EC50 (cAMP, HTRF) in assay [1] was 0.34 nM. The EC50 [nM], 0% HSA (cAMP, HTRF) in assay [2] turned out to be 0.34 nM.
